This data set relates to T1, VPF-FRRG(SEQ ID NO: 1)-DOX self-assembled nanoparticles (LT-NPs).
T1 sequence: FRRG

Results on one substance are retold here after US20220370611.

For the substance cathepsin B (Cat-B) protease, the “cleavage of LT-NPs after enzymatic reaction with cathepsin B (RP-HPLC at 0, 9 and 24 h; fluorescence spectrophotometry)” value was “the self-assembled nanoparticles (LT-NPs) were cleaved by cathepsin B to release doxorubicin and the photosensitizer”; the “morphology by transmission electron microscopy after 24 h reaction with cathepsin B (50 ug/mL)” value is “the self-assembled nanoparticles (LT-NPs) were degraded by cathepsin B present in cancer cells and existed in an activated state”.
